Assay results published in a protein production outcome set (Wang et al. 2014).

Test: label from the status in PepcDB records

| Sequence | protein production |
| --- | --- |
| MKLRKRRLCAATGVVLGALTALAALPPAAVASPHPGGHPPTARRALPLGPAGLPERRTTTTLQPGVTLTRIVRGNAEDPALHWTVEVSIPGGDTSPDPDAPPTALKDRASADELAAELRRDGFEARVEEVTTPATADYRGGTLGWRVRIGTFDSQTAATAERTRLRAAGYSGSAVYTGWDGAATDRGPWHVDVLTIDPRTFRGTLDASYGPDLENRETTSALAASAAATAAVNAGFFVLDPRAGAPGDPAGVGVYDGRLLSEPVAGRPALVVHDDGRRTEIARLTWQGRIATRAASLPLNGVNRVPGLIRNCGGSAGDTPTSLPLHDVTCTNPDELVAFTPDYGGRTPGGEGMEAVLDAHERVVELRSPRGGTIPRGGSSVQATGERVADLTATARVGERLRVSATLLDDRGRRMSTSPGTDIVNAGPELVRDGRVHVTPATDGMVHPGDPSWYYGWVHKRNPRTVAGVDAAGRTVLVTADGRSTDSLGLSIGESAEVARSLGLRDAVNLDGGGSTTMVAEGAVLNSPSDAAGERPVGDALLILPHRHRTRS | failed |
| MKTIRSIGRFAVLAAMAALFAGCAGQQVKSEQRFFWPPLPERPRIEWLNAYSSQNDFPKSATEKFLTTIIGEEEGISLSKPITVRSDGRGKVYVGDPGAPGVYVFDFVNNIMRPFGKAEAEARIEQPVGIAIDENGRIYVSDTKKAAIMVFHQDETPAALINLKGMVEKIGDIAYDRIGKHLLALDVRGHKVLVLSLRGELLSSFGNRGTKPGEFNFPSALTVNNKGEIIVADAMNARIQIFSSDGKFLRMFGQRGDSPGTLQLIKGVAVDSDDNIYVTDGKGHKFEIFSTTGDYLLTVGGAFSALTTGKTAPGGFVIPQGIDIDKDNMIYVVDQLNRRFQVFRYISDSYLKANPIPGYTPSP | failed |
| MTALKPALPDYLGNIRIILTRTSHPANIGSAARAMKTMGLHRLTIVTPNLMATPMTENPPVFNPDDVQSFALPEESFILASGAADVLHNAEIVATLDEALADTTIACALTSRRREITAPLQTPRDLVPELLQAANRGEKVALVFGNETFGLSIEEVRACNRLMTINGNPDYFSLNLAQAVQVVCYEIFSQTDSPMTHLQQEDHAATHEQIKGMLAHMESVMDDIGFFNRRNGERLMRRMQSLFGRANTQTEDIDILRGFFNTVSHRIHKKD | failed |
| MFVAREHELQVLEKLFTSDSFEMVVLYGRRRVGKTALIDEFVKDKRVLYFTAIQQSAKMNLEDFSRAALSFFGMPDSTPSFGGWSDALSFVAERAAQTDERMVFVFDEFPYAAAAEPALPSMLQIAIDHGFLATKVTMILSGSNEGFMENDVLGRKSPLYGRRTAQIRLLPFDYADAAKFLTNTSPQELVQYYATFGGTPYYLARIQEADGFESNVLRLMFDNLGVLREEPMMLLRQELREPASYYSILQSIAGGNSSPKLIAEHAGVGSDSIGAYLKTLVDLRLIERKVPFGEDPSKSRKGMYVVSDPFFAYWFRFVGRNMSILDGNISEEVTSRLAFGPAFDTYVGQQFETICLQWLIRNNAMGNLPFVATQFGKWWGNDPIAHEQTDIDVIAADSLDKTILFGECKWRNSFNETEAIEKLHQRAGLVRGYQAGNAWLMLFTKNPVSESTRTRYMDDERMVFVSAEELYTALEHHHHHH | failed |
| MNIKLKRTLISLVAFSMTCLPFVGTGSSVKAASNDATINVAAKHQTIRGFGASSAWCGALSDTCMDTLYKNAGLDILRVRIAPNEGWNRGDYRAWADELSNAKKVRARGGIVFATPWTPPASMKTNNTTTGANKGSLKPSSYAAYAAYLKTFVKYMSDNGAPLYALSLQNEPDWAPDYDACTWTAQQFHDFLKQYGASLSSTIKIIMPESLGFNPAMSDPTLNDPTTAQYVSIIGGHLYGSPIRDYPLARNKGKDIWMTEHYLEGNDPGTCVKLAKEIHDCMTIGNMNAYVYWWISGDQNGLYNTRTNETYKKTYVMGQFSKFIGNGYSRVDATNSPQSNVYVSAYTGNNKVVIVAINQGTYPVNQSFNVQNSTVSNVSSWVSSGTLNMAKTNSNISAANGRFNASLPAQSVTTFVADLNSTNPTTDPTTNPTPGSTVTLNNGWYYIKNINAQKYLQVASNTGKAGQNVELGSGSGAAGQKWYLTNTGDGYVTLKSALGNYMLDVSYGENKDGSNIQIFNAYSGDAQKFSVKASSKDGQYFVSTKSSNGTKVLDDYNFGTADGTNVCQWTYGGNANQLWAFEPTNN | failed |
| MNTFPWLTTIILLPIVAALFIPIIPDKDGKTVRWYSLAVGLVDFALIVYAFYSGFDLSEPGLQLVESYTWLPQIDLKWSVGADGLSMPLIILTGFITTLATMAAWPVTLKPKLFYFLMLLMYGGQIAVFAVQDILLFFLVWELELVPVYLILSIWGGKKRLYAATKFILYTAGGSLFILLAGLTLAFYGDVNTFDMSAIAAKDIPVNLQLLLYAGFLIAYGVKLPIFPLHTWLPDAHGEATAPAHMLLAGILLKMGGYALLRMNVGMLPDAHAVFAPVLVILGVVNIIYAAFTSFAQRNLKRKIAYSSISHMGFVLIGLASFTDLGMSGAMLQMISHGLIGASLFFMVGATYDRTHTLMLDEMGGIGQKMKKGFAMWTACSLASLALPGMSGFVAELMVFVGFATSDAYNLVFRTIVVVLMGVGVILTPIYLLSMLREMLYGPENEELVNHTNLVDVEPREVFIIGCLLVPIIGIGFYPKLITQIYDPTINQLVQTARRSVPSLVQQANLSPLEVTALRPPTIGF | failed |
| MEFGYIGLMVSVVLIGISVYGFLNSKNIVRIFLSSEILVNASILIVFSVSSLTNQVYLPIYFSLFAIGMALVEIVVAFAAIFLYYKNKGSLEVE | failed |
| TIADVQSSRDLRNLPINQVGIKDLRFPITLQTAEGIQSTIARLTMTVYLPAEQKGTHMSRFVALMEQHAEALDFAQLRKLTTEMVALLDSRAGKISVSFPFFRKKTAPVSGIRSLLDYDVCLTGEIKDGAYGHSMKVMIPVTSLCPCSKEISQYGAHNQRSHVTVSLTADAEVGIEEVIDYVEAQASCQLYGLLKRPDEKYVTEKAYENPKFVEDMVRDVATSLIADKRIKSFVVESENFESIHNHSAYAYIAYP | not failed |
| LLLLHGFTSHPVLTLGPLSERLKEAGWEVRQPALPGHGTRPEDLLKVRFQDWLLAAEEAYLELPEPRGVVGLSMGGLLAAHLAARHPTKALVALAPAFALKNPLAPYLHWLIPRFPGPPSIEDPELRKRNPNYPYFPTRAVLELLALMRKTPEVLPRVKARALVVEAGKDRVVKGVDRYFALLGSPRKDHLVFPESGHDLLLDRDREEVARAVRDWL | failed |
| MTQNVLNERPAGQKPVALSSFRGCINGLYGDVLQGWAIDITQPDQRPVIEVFVDGASVALARADQHEPNAPHGDHFHGFTVQLRQSLLADANRITAQIANTGIHLEGEIELPSQPPQETAAVASQVWHTGGLRVGGWSWDPQAPHRHVVVTLREGSRVVAQVTCNTHHQALAYRATSDHGFAIDLPWELADGKLHVIEVTNDLGQSLPGSPIRLRCRPEGLEGLLHQLELKPDAAMQALVAEVAKEQSSRLPKSAGWQHYPRWYDAFQKREPIAAIPSRFRPGLLLLSEGDATLEKISLDSLGDDAESVHQLAKAAPADLLPAVEQLLAAGCDSIIQIAAGDKLAPRAMAQLRNLLEEGCAWAYADCDRDGPQGQRSQPWFKPVWDIDLFIGADIFSTGAIFSAAIVKEALALLKAGKKQSAINRHDLIAGIALATELNGRSVTHLPRVLYHRSSDTCTSPEQAAPSKQRKDAVAWLCQGLAPGAHVSAVPDYPALLRAHWPLPEQLPRVSLIVPTRDQYKLLHACIEGLLNNTDYPDLEIIVVDNQSTDPQTLAYLAELKQRGVKILAHPHPFNYSTINNRAASAATGELIGLVNNDIEIIESGWLKEMVSQALRPGIGAVGAKLLWPNRMVQHGGVVVGVNGLAAHAGNTLEQRDAGYLGMNQVTRRQSAVTAACLLLRKSLFDSIQGLDERAFPVAFNDVDLCLRIHELGLRNVWTAFAQLIHAESASRGKDISPEKMARAQREQQLFTERWSVSYRDPYYHPALSLDYLTGPYGGLSLPPEPEYCAPRKLASSETHGHIYLADPS | failed |
| MDLAGQGQYGQVYLAVNRESGDLVAIKVLSERQLLTRGFLRELNFLLTLQHPHVVGCQAIDYIRVHHSPQVSRSLVMDYCAGGTLRSLLEQEQALPLTTALRLTLDILSALAYAHHRGILHCDLKPENILLEVTATGWQAKVSDFGVARLIEDVKGSGQTGSPAYMAPERFYGQTMPASDLYAVGILLYEMIVGDRPFHGTPAELMAAHLSRPYTLPEGLPFLVRSIIAKALDKLPQRRYKSAAEMTMAVQLALEVIEAEHHQQPLLFSRSPAAVWLGEPQGFALPRLPQQVASTATGFYGVVGDRLWAWQARETIPEATAQWPLPPLPIQLYGSEVSAWLRINALPPQLFCIHDQLIPLDGHLPSTLNPLTIDARGYWWAETQIDSAAAELQLHVQLINGQGRRTLRCQWHGRTFVDTLLLNRRYGAVISRSQDPETAHPITHFQLFDRRGHWRLYTPLPAHLTLLTPAHHQPWQVAAFEDHPQQPLLVLLHLRPWRIQRLGLRFRPQFLCATPWGYVVAGRHSLNLVTHSGEIVGTAESEQEIDGLGFTGDRHLWLIRRQGSGCVIQTWDITTWDIHLIL | failed |
| MKALFFTRMFTLMVSCLMYLSIVKEDNWFGYVFIAAGAAMYAANHVLLTKETNAIWFCLIDIAIGFSFGFIFPGTGLFIIMLCPVAVAFFLRGFPKRTAWSVLCLSSILFLTVLIRTYAMFGNEFVIDHLTSMTFVVFCGVVGKLIRKLLDAQDTAKQQFQELTESHLALSAAHQELHLYAKQVEELTAIYERNRMAREIHDTVGHKMTALLVQLQLLREWQKRDSQKADETVGVCETLAREALDDVRLSVRTLQTENDPSLIESLKQLTEDFCKNAGVTTEFAVSGDPAIIPLSLHPTLIRTVQEALTNAKRHGGAAACSIQLACTTDSISLVIKDDGKGNPEAALGFGLLNMKKRAAEHGGMIRFESERDQGFTVNAEFSLANKKWSFGPVQQKESLS | failed |
| KLLAITSCPNGIAHTYMAAENLQKAADRLGVSIKVETQGGIGVENKLTEEEIREADAIIIAADRSVNKDRFIGKKLLSVGVQDGIRKPEELIQKALNGDIPVY | not failed |
| MAKGSAKKSFLDLFKITDSNDDDFDDDMFDDEDEMEDEYDDPYDEAYDSEEEYDDGSDAASDRAKASPLKSFNKYKNSRTPSGNVSKTKTAKSSQNSKLVSINSRSDRDSYDDSEVFVIKPDEFDDAQMIIDHLNRGQIIVINMEDLDLPTAQRIADFIGGASYAVNGLFQAISGNIFLATPNGTYVSGDLREELAGGSLGGEDLSKATY | failed |
| MKIAVVGGTGLVGQGILLELSKDTTLELHSISRNGKRPNSIAGVNYHSFDLAHDTSWHSLLQTSDWVIDCVGILLPNKSKNQTYENSSIEPAKLIIDSIANFDNKFLFISANSAPFFLNNYLHAKRTVENYASRKLGNRAISVYPGLVYSKFRRSNYYPAVILDFLLKFKLFSFLRKFRPISRERFAKEIHYIIEGKNSSLTYRI | failed |
| MYALISLEEDPSLLRYGYLSQDNVGDVRREVSKLCGELRPHALALVTSFGIPDSFLSPIAFNWVEANTWSSV | failed |
| MKKRLFVLSLILLVALDQLSKFWIVSHIALGEVKPFIPGIVSLTYLQNNGAAFSILQDQQWFFVVITVLVIGYAIYYLATHPHLNIWKQLALLLIISGGIGNFIDRLRLAYVIDMIHLDFVDFAIFNVADSYLTVGVILLLICLWKEEDYGN | failed |
